Assay results published in patent publication US20250368744A1 (CONCEPT TO MEDICINE BIOTECH, published 2025).
Where two headings read alike, the source gives them in different places.

Key:
human CCR4 = target: T1, human CCR4 (human, UniProt P51679 1-360); assay: FACS, CHO-K1 hCCR4 cells
T1 construct: whole, on cells; also called hCCR4
T1 sequence (looked up): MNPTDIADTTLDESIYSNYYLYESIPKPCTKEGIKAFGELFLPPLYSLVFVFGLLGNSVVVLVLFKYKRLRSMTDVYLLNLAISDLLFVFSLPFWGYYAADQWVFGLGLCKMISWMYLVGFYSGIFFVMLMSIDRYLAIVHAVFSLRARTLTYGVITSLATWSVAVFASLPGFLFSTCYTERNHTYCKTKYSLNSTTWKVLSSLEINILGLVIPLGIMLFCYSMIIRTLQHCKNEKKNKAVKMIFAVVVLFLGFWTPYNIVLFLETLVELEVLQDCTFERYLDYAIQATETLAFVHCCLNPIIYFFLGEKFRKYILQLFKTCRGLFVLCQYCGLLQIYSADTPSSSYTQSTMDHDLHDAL
Method: (§1) Briefly, HEK293 hCCR8 cell line, CHO-K1 cyno CCR8 cell line or CHO-K1 hCCR4 cell line was first incubated with 5-fold serially diluted and 8 doses with the above 10 chimeric Abs and hlgG1 control starting from 100 nM at 4° C. for 30 mins. After washing by FACS buffer, PE Goat anti-Human IgG Fc Secondary Antibody (eBioscience™, Invitrogen) was added to each well and incubated at 4° C. for 30 mins. Samples were washed twice with FACS buffer. The mean florescence intensity (MFI) of PE was evaluated by MACSQuant Analyzer 16.

[1] = target: T2, human C-C motif chemokine receptor 8 (CCR8) (human, UniProt P51685 1-355); assay: cell-based or functional assay
[2] = target: T2, human C-C motif chemokine receptor 8 …; assay: cell-based or functional assay; remark: listed apart in the source
[3] = target: T2, human C-C motif chemokine receptor 8 …; assay: FACS (MFI-PE) on HEK293 hCCR8 cells
Method: as §1

cyno CCR8 [4] = target: T3, cyno CCR8 (cynomolgus, UniProt G7NYJ2 1-355); assay: FACS (MFI-PE) on CHO-K1 cyno CCR8 cells; fitted value, the curve stays at the baseline
T3 construct: whole, on cells; also called cynomolgus CCR8 protein
Method: as §1

[5] = target: T2, human C-C motif chemokine receptor 8 …; assay: FACS (MFI-PE) on CHO-K1 hCCR8 cells
cyno CCR8 [6] = target: T3, cyno CCR8; assay: FACS (MFI-PE) on CHO-K1 cyno CCR8 cells; fitted value, the curve hardly leaves the baseline
[7] = target: T2, human C-C motif chemokine receptor 8 …; assay: cell-based or functional assay; remark: listed apart in the source
cyno CCR8 [8] = target: T3, cyno CCR8; assay: FACS (MFI-PE) on CHO-K1 cyno CCR8 cells; fitted value far outside the range tested (up to 100 nM)
[9] = target: T2, human C-C motif chemokine receptor 8 …; assay: cell-based or functional assay; remark: listed apart in the source
[10] = target: T2, human C-C motif chemokine receptor 8 …; assay: cell-based or functional assay; remark: listed apart in the source
[11] = target: T2, human C-C motif chemokine receptor 8 …; assay: cell-based or functional assay; remark: listed apart in the source
[12] = target: T2, human C-C motif chemokine receptor 8 …; assay: cell-based or functional assay; remark: listed apart in the source
[13] = target: T2, human C-C motif chemokine receptor 8 …; assay: FACS (MFI-PE) on HEK293 hCCR8 cells; remark: listed apart in the source
[14] = target: T2, human C-C motif chemokine receptor 8 …; assay: FACS (MFI PE) on HEK293 hCCR8 cells

T2 sequence (P51685 whole entry): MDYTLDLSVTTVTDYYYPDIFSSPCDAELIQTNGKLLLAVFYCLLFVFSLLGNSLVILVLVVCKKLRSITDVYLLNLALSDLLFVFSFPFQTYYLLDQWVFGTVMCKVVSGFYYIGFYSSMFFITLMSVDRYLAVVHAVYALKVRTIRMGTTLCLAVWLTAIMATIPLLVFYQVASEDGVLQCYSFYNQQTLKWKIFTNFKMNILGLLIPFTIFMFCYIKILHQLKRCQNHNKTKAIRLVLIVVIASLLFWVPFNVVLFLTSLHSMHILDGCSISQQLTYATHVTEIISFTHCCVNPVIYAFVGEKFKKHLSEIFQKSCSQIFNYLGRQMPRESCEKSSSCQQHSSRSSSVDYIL
T3 sequence (G7NYJ2 entry or part of it): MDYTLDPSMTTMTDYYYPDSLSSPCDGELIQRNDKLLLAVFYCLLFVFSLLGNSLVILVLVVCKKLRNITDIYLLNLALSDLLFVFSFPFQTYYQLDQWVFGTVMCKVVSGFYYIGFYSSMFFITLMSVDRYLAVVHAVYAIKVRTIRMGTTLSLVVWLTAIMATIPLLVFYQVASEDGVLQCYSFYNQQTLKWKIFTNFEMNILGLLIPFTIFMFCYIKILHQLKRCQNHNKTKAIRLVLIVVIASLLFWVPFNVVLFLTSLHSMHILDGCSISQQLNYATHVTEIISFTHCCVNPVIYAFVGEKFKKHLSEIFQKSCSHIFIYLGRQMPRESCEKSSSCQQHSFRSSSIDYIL

B1: 163H9D5 (antibody, V domains shown)
VH: EVQLVESGGGLVQPKGSLKLSCAASGFSFNTYAMNWVRQAPGKGLKWVARIRTKSNNYATHYADSVKDRFTLSRDDSESMLYLQMNNLKTEDTAMYYCVGGGYGSSASNAMAYWGQGTSVTVSS
VL: DIVMTQAAPSVPVTPGESVSISCRSSKSLLHSNGNTYLYWFLQRPGQSPQLLIFRMSNLASGVPDRFSGSGSGTAFTLRISRVEAEDVGVYYCMQHLEYPFTFGSGTKLEIK
notes: tested as chimeric mAb
With B1 the binding result (human CCR4) was “no binding (tested: 100 nM (highest concentration tested))”, the “IC50, hCCL1-induced beta-arrestin recruitment (RLU), CHO-K1 hCCR8 cells” value [1] was 13.8 nM and the “IC50, hCCL1-induced Ca2+ flux (stimulation %), Chem-1 hCCR8 cells [lower graph]” value [2] was 5.77 nM. The “IC50, hCCL1-induced Ca2+ flux (stimulation %), Chem-1 hCCR8 cells [upper graph]” value [2] was 7.6 nM, the EC50 [3] was 0.107 nM and the EC50 (cyno CCR8 [4]) was 29.9 nM.

B2: 195H8D10-C1 (antibody, V domains shown)
VH: EVQLVGSGGGLVQPKGSLKLSCAASGFNFNTYVMNWVRQAPGKGLEWVARIRTKSNNYATYYADSVKDRFTISRDDSESKLYLQMNNLKTEDTAMYYCVSGTITRLGGGLDYWGQGTSVTVSS
VL: DIVMTQAAPSVPVTPGESVSISCRSSKRLLHSQGNTYLYWFLQRPGQSPQLLIYRMSNLASGVPDRFSGSGSGTAFTLRISRVEAEDVGVYYCMQHLEYPFTFGGGTKLEIK
notes: also called 195H8D10 VH with 195H8D10 VL NG-QG
With B2 the EC50 [5] was 0.29 nM and the EC50 (cyno CCR8 [6]) was 68.1 nM.

B3: 200C9B9-C1 (antibody, V domains shown)
VH: EVQLVESGGGLVQPKGSLKLSCAASGFSFNTYVMNWVRQAPGKGLNWVARIRTKSNNYATFYVDSVKDRFTISRDDSENMLYLQMNNLKIEDTAIYYCVSGTITRLGAGLDYWGQGTSVTVSS
VL: DIVMTQAAPSVPVTPGESVSISCRSSKSLLHSQGNTYLYWFLQRPGQSPQLLIYRMSNLASGVPDRFSGSGSGTAFTLRISRVEAEDVGVYYCMQHLEYPFTFGGGTKLEIK
notes: also called 200C9B9 VH with 200C9B9 VL NG-QG
With B3 the “IC50, hCCL1-induced beta-arrestin recruitment (RLU), CHO-K1 hCCR8 cells” value [7] was 0.154 nM, the EC50 [5] was 0.399 nM and the EC50 (cyno CCR8 [8]) was greater than 100 nM.

B4: Hu200C9B9-7 NG-NA (antibody, V domains shown)
VH: EVQLVESGGGLVQPGGSLRLSCAASGFSFNTYVMNWVRQAPGKGLEWVARIRTKSNNYATFYVDSVKDRFTISRDDSKNSLYLQMNSLKTEDTAVYYCVSGTITRLGAGLDYWGQGTLVTVSS
VL: DIVMTQSPLSLPVTPGEPASISCRSSKSLLHSNANTYLYWYLQKPGQSPQLLIYRMSNLASGVPDRFSGSGSGTAFTLKISRVEAEDVGVYYCMQHLEYPFTFGGGTKLEIK
notes: humanized, PTM site removed
With B4 the “IC50 (read off the curve), hCCL1-induced beta-arrestin recruitment (RLU), CHO-K1 hCCR8 cells” value [9] was roughly 2 nM, the “IC50, hCCL1-induced Ca2+ flux (stimulation %), Chem-1 hCCR8 cells” value [10] was 0.36 nM and the “IC50, hCCL1-induced beta-arrestin recruitment (% stimulation), CHO-K1 hCCR8 cells” value [11] was 1.58 nM. The “IC50, hCCL1-induced Ca2+ flux (% stimulation), Chem-1 hCCR8 cells” value [12] was 4.33 nM, the EC50 [13] was 0.069 nM and the EC50 [14] was 0.15 nM.
